From patent US20240294650A1

B1: MTK-208 (antibody, human IgG1, V domains shown)
VH: QVQLQQPGAELVVPGASVRLSCKASGYTFINYWMHWVKQRPGQGLEWIGEIDPSDSYANYNQKFKDKSTLSLDKSSSTAYMQLSSLTSEDSAVYYCARCDYYGRLDYWGQGTTLTVSS
VL: QVVLTQSPAIMSASPGEKVTITCSASSSVSYMLWFQQKPGTSPKLWIYSTSNLASGVPARFSGSGSGTSYSLTISRLEAEDAATYYCQQRSSYPPITFGAGTKLELK
B2: MTK-201 (antibody, human IgG1, V domains shown)
VH: QVQLRQSGPGLVQPSQSLSITCTVSGFSLSNYGLHWVRQSPGKGLEWLGVIWSGGITDYNAAFISRLSIIKDNSRSQVFFKMNSLQADDTAIYYCARKGHDPYAMDFWGQGTSVTVSS
VL: QIVLTQSPPIMSAFLGERVTMTCTASSSVSSSYLHWYRQMPGSSPKLWIYDTSNLASGVPARFSGSGSGTSYSLTISSMEAEDAATYYCHQYHHSPYTFGGGTKLEIK
B3: MTK-210 (antibody, human IgG1, V domains shown)
VH: QVQLQQSGPELVKPGASVKISCKASDYEFSRSWMNWVKQRPGKGLEWIGRIYPGDGDTNYNGKFKGKATLTADKSSNTAYMQLNSLTSEDSAVYFCARKGGYYYSISNYFDYWGQGTTLTVSS
VL: QIVLTQSPAIMSASPGVKVTMTCSASSSVSYMHWYQQKPGSSPRLLIYDTSNLASGVPVRFSGSGSGTSYSLTISRMEAEDAATYYCQQWSSYPPYTFGGGTKLEIK
B4: MTK-217 (antibody, human IgG1, V domains shown)
VH: QVQLQQPGTEVVKPGASVKMSCRASGYTFTSYWITWVKQRPGQGLEWIGDIHPGSGINNYNEKFRSKATLTVDTSSSTVYMELSSLTSEDSAVYYCAKGGYYGSSYYVMDYWGQGTSVTVSS
VL: DILLTQSPAILSVSPGERVSFSCRASQTIGTSIHWYQQRTNDSPRLLIKYASESISGIPSRFSGSGSGTDFTLSINSVESEDIADYYCQQSNDWPYTFGGGTKLEIK
B5: MTK-221 (antibody, human IgG1, V domains shown)
VH: QVTLKESGPGMLQSSQTLSLTCSFSGFSLSTSGMGVSWIRQPSGKGLEWLAHIYWDDDKRYNTSLQSRLTISKDTSRNQVFLKITSVDTADTATYFCGRLGAYSAFPYYFDYWGQGTTLTVSS
VL: DIQMTQSPSSLSASLGGKVTITCKASQDIHKHIAWYQHKPGKGPRLLIHYTSTLQPGIPSRFSGSGSGRDYSFSISNLEPEDLATYYCLQYDNLWTFGGGTKLEIK

The binders below were run against endogenous murine MerTK on bone marrow-derived macrophages (mouse) (UniProt Q60805) (assay: FACS, mouse BMDM, WT minus MerTK KO).
Chain of endogenous murine MerTK on bone marrow-derived macrophages (mouse) (Q60805 19-994): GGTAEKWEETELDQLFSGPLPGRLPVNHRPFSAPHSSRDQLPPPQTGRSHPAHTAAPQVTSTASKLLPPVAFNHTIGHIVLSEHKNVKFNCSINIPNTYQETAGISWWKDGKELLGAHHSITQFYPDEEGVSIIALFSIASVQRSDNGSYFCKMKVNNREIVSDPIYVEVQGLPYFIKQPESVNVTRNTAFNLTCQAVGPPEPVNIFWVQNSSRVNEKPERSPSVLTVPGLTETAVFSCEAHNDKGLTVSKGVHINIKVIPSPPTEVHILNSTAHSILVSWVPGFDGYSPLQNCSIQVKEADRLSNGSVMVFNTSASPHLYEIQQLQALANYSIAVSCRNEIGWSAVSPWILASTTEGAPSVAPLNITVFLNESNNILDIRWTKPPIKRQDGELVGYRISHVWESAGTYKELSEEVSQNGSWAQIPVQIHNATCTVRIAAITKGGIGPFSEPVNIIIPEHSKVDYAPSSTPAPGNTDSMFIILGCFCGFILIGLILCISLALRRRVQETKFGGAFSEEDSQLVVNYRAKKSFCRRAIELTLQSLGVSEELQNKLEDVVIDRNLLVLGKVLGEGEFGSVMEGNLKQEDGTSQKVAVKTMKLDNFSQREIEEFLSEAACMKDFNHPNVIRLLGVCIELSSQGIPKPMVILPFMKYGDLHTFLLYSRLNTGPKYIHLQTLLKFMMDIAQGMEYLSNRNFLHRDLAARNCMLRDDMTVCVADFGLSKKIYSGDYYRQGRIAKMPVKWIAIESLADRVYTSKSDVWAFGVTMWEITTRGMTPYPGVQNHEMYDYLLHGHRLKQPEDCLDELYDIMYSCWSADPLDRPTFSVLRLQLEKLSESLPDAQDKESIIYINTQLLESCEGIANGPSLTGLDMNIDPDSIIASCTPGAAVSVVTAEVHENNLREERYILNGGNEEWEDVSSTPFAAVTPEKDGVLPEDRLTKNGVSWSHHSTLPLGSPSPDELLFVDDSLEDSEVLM
B1 gave an MFI of 1170 MFI.
In the case of B2, the MFI is reported as 1030 MFI.
B3 showed an MFI of 1270 MFI.
With B4 the MFI was 1130 MFI.
B5 gave an MFI of 993 MFI.
